From patent publication US8497072

Experiments:
[1] = target: endogenous Aβ(1-42) in human CSF (human); experiment: IP from CSF of AD patients (n=2), ratio of recovered Aβ42 to Aβ40
[2] = target: endogenous Aβ(1-42) in human CSF (human); experiment: IP from CSF of MCI patients (n=4), ratio of recovered Aβ42 to Aβ40
[3] = target: endogenous Aβ(1-42) in human CSF (human); experiment: IP from AD patient CSF, urea-PAGE Western blot, share of Aβ42 in recovered Aβ40+42
[4] = target: endogenous Aβ(1-40) in human CSF (human); experiment: IP from CSF of AD patients (n=2) with antibody-Sepharose, Aβ40 sandwich ELISA of eluate
Sequence of endogenous Aβ(1-40) in human CSF (human) (peptide, as listed by the source): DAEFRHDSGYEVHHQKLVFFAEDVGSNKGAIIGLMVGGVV

[5] = target: endogenous Aβ(1-42) in human CSF (human); experiment: IP from CSF of AD patients (n=2) with antibody-Sepharose, Aβ42 sandwich ELISA of eluate
[6] = target: endogenous Aβ(1-40) in human CSF (human); experiment: IP from CSF of MCI patients (n=4) with antibody-Sepharose, Aβ40 sandwich ELISA of eluate
[7] = target: endogenous Aβ(1-42) in human CSF (human); experiment: IP from CSF of MCI patients (n=4) with antibody-Sepharose, Aβ42 sandwich ELISA of eluate
Aβ(1-42) fibrils (human) = Aβ(1-42) fibrils (human) (UniProt P05067); experiment: co-sedimentation with Aβ(1-42) fibrils, SDS-PAGE, densitometry of heavy chain in pellet and supernatant
Sequence of Aβ(1-42) fibrils (human) (P05067 672-713 limits assumed): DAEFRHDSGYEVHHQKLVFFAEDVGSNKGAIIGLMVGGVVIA

[8] = target: endogenous Aβ(1-40) in human CSF (human); experiment: IP from AD patient CSF with antibody on anti-mouse IgG Dynabeads, 8 M urea-PAGE and Western blot (82E1)
[9] = target: endogenous Aβ(1-42) in human CSF (human); experiment: as above
Aβ(1-40) monomer (human) = experiment: dot blot, 10 pmol antigen on nitrocellulose, 0.2 µg/ml antibody, densitometry
[10] = target: Aβ1-42 monomer (dot blot) (human); experiment: as above
Sequence of Aβ1-42 monomer (dot blot) (human) (peptide, as listed by the source): as the sequence (P05067 672-713 limits assumed) above

Sequence of endogenous Aβ(1-42) in human CSF (human) (peptide, as listed by the source): as the sequence (P05067 672-713 limits assumed) above

Substance	Aβ42/40 [1] [%]	Aβ42/40 [2] [%]	Ratio Aβ42/Aβ40+42 × 100% [3] [%]	Aβ(1-40) recovered after immunoprecipitation [4]	Aβ(1-42) recovered after immunoprecipitation [5]	Aβ(1-40) recovered after immunoprecipitation [6]	Aβ(1-42) recovered after immunoprecipitation [7]	Fibril bound Ab fraction (Aβ(1-42) fibrils (human)) [%]	Aβ40 urea-PAGE after immunoprecipitation [8] [pg/mL]	Aβ42 urea-PAGE after immunoprecipitation [9] [pg/mL]	Reflective Density (RD) [10 pmol] (Aβ(1-40) monomer (human)) [RD]	Reflective Density (RD) [10 pmol] [10] [RD]
mMAb 6E10 (Signet Inc. Cat.# 9320) (antibody)	20.6	17.4	4.4	5610	1450	8280	2040	98	4390	202		
mMAb 4G8 (Signet Inc. Cat# 9220) (antibody)											0.7	3.1
